Common to all, as to assay: pull-down
Assay [1] addresses Strep II-tagged UAF1 H599A (UniProt Q8TAF3 1-677, H599A).
The target of assay [2] is Strep II-tagged UAF1 K595E (UniProt Q8TAF3 1-677, K595E).
The target in assay [3] is Strep II-tagged UAF1 K459E (UniProt Q8TAF3 1-677, K459E).
The target of assay [4] is Strep II-tagged UAF1 K595E/H599A double mutant (UniProt Q8TAF3 1-677, K595E | H599A).
In assay [5] the target is T1, Strep II-tagged UAF1 (UniProt Q8TAF3 1-677).
For assay [6], the target named is T1, Strep II-tagged UAF1. This is another data set of the same source.
Assay [7] has as its target T2, RAD51 (UniProt Q06609 1-339).
T2 sequence (looked up): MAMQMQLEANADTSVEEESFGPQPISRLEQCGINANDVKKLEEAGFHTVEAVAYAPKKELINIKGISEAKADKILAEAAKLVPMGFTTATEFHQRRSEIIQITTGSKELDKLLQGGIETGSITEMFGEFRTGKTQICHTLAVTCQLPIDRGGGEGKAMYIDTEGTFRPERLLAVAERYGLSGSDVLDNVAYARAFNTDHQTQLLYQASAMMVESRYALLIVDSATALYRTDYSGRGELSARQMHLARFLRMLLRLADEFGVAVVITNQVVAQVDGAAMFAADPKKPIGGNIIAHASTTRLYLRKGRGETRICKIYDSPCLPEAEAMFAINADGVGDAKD

Assay [8] addresses T1, Strep II-tagged UAF1. This is another data set of the same source.

Residue numbers refer to the chain shown, from its start. Numbers in names are those of the source. Where two headings read alike, the source gives them in different places.

T1 sequence (Q8TAF3 whole entry): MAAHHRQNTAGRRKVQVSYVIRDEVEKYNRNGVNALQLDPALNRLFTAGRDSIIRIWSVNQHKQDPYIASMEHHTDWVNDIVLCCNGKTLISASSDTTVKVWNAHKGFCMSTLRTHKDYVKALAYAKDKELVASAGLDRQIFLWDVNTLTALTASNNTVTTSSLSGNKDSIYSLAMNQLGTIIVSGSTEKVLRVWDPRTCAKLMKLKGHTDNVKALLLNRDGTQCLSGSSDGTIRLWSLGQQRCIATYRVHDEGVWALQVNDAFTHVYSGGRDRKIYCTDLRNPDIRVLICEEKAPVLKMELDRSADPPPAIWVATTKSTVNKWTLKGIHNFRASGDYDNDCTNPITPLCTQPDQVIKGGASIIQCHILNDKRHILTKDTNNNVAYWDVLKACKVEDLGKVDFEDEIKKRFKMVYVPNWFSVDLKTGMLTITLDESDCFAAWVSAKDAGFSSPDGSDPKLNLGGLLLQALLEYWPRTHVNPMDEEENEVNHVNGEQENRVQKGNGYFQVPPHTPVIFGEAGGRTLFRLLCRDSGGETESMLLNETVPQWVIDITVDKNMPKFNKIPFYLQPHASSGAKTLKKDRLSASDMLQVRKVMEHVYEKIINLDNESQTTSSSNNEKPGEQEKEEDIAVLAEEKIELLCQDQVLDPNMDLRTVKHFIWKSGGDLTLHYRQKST
Chain of Strep II-tagged UAF1 K595E/H599A double mutant (Q8TAF3 whole entry K595E/H599A): as the sequence (Q8TAF3 whole entry) above, with K595E, H599A counted along it
Chain of Strep II-tagged UAF1 K595E (Q8TAF3 whole entry K595E): as the sequence (Q8TAF3 whole entry) above, with K595E counted along it
Chain of Strep II-tagged UAF1 K459E (Q8TAF3 whole entry K459E): as the sequence (Q8TAF3 whole entry) above, with K459E counted along it
Chain of Strep II-tagged UAF1 H599A (Q8TAF3 whole entry H599A): as the sequence (Q8TAF3 whole entry) above, with H599A counted along it

B1: GST-tagged RAD51AP1 (natural protein, UniProt Q96B01-2 1-335, looked up)
chain: MVRPVRHKKPVNYSQFDHSDSDDDFVSATVPLNKKSRTAPKELKQDKPKPNLNNLRKEEIPVQEKTPKKRMALDDKLYQRDLEVALALSVKELPTVTTNVQNSQDKSIEKHGSSKIETMNKSPHISNCSVASDYLDLDKITVEDDVGGVQGKRKAASKAAAQQRKILLEGSDGDSANDTEPDFAPGEDSEDDSDFCESEDNDEDFSMRKSKVKEIKKKEVKVKSPVEKKEKKSKSKCNALVTSVDSAPAAVKSESQSLPKKVSLSSDTTRKPLEIRSPSAESKKPKWVPPAASGGSRSSSSPLVVVSVKSPNQSLRLGLSRLARVKPLHPNATST
With B1, the binding result in assay [1], in assay [2], in assay [3], in assay [4] and in assay [5] was “binds” in each case.

B2: RAD51AP1 (no tag named) (natural protein, UniProt Q96B01-2 1-335, looked up)
chain: B1 chain
With B2, the binding result in assay [6] and in assay [7] was “binds” throughout.

B3: RAD51AP1 H329A mutant (natural protein, UniProt Q96B01-2 1-335, looked up)
chain: B1 chain with H329A
B3: the binding result in assay [8] was “binds”.

B4: RAD51AP1 fragment, amino acid residues 95-187 (domain or fragment, UniProt Q96B01-2 95-187, looked up)
chain: TVTTNVQNSQDKSIEKHGSSKIETMNKSPHISNCSVASDYLDLDKITVEDDVGGVQGKRKAASKAAAQQRKILLEGSDGDSANDTEPDFAPGE
As to B4, the binding result in assay [8] is on record as “binds”.

B5: RAD51AP1 1-145 fragment (domain or fragment, UniProt Q96B01-2 1-145, looked up)
chain: MVRPVRHKKPVNYSQFDHSDSDDDFVSATVPLNKKSRTAPKELKQDKPKPNLNNLRKEEIPVQEKTPKKRMALDDKLYQRDLEVALALSVKELPTVTTNVQNSQDKSIEKHGSSKIETMNKSPHISNCSVASDYLDLDKITVEDD
Consider B5, for which, in assay [8], the binding result was “binds”.

B6: RAD51AP1 ΔN25 mutant (domain or fragment, UniProt Q96B01-2 26-335, looked up)
chain: VSATVPLNKKSRTAPKELKQDKPKPNLNNLRKEEIPVQEKTPKKRMALDDKLYQRDLEVALALSVKELPTVTTNVQNSQDKSIEKHGSSKIETMNKSPHISNCSVASDYLDLDKITVEDDVGGVQGKRKAASKAAAQQRKILLEGSDGDSANDTEPDFAPGEDSEDDSDFCESEDNDEDFSMRKSKVKEIKKKEVKVKSPVEKKEKKSKSKCNALVTSVDSAPAAVKSESQSLPKKVSLSSDTTRKPLEIRSPSAESKKPKWVPPAASGGSRSSSSPLVVVSVKSPNQSLRLGLSRLARVKPLHPNATST
Regarding B6, in assay [8], the binding result is “binds”.

The record behind these values is publication PMC5381662 (Cell reports, 2016).
